The results in this text go back to patent publication US20130039933.

Series [1] deals with A366 peptide (STING peptide substrate with alanine at 366).
The target in series [2] is S366 peptide (STING peptide substrate with serine 366).

B1: ULK1 (protein)
chain: MEPGRGGTETVGKFEFSRKDLIGHGAFAVVFKGRHREKHDLEVAVKCINKKNLAKSQTLLGKEIKILKELKHENIVALYDFQEMANSVYLVMEYCNGGDLADYLHAMRTLSEDTIRLFLQQIAGAMRLLHSKGIIHRDLKPQNILLSNPAGRRANPNSIRVKIADFGFARYLQSNMMAATLCGSPMYMAPEVIMSQHYDGKADLWSIGTIVYQCLTGKAPFQASSPQDLRLFYEKNKTLVPTIPRETSAPLRQLLLALLQRNHKDRMDFDEFFHHPFLDASPSVRKSPPVPVPSYPSSGSGSSSSSSSTSHLASPPSLGEMQQLQKTLASPADTAGFLHSSRDSGGSKDSSCDTDDFVMVPAQFPGDLVAEAPSAKPPPDSLMCSGSSLVASAGLESHGRTPSPSPPCSSSPSPSGRAGPFSSSRCGASVPIPVPTQVQNYQRIERNLQSPTQFQTPRSSAIRRSGSTSPLGFARASPSPPAHAEHGGVLARKMSLGGGRPYTPSPQVGTIPERPGWSGTPSPQGAEMRGGRSPRPGSSAPEHSPRTSGLGCRLHSAPNLSDLHVVRPKLPKPPTDPLGAVFSPPQASPPQPSHGLQSCRNLRGSPKLPDFLQRNPLPPILGSPTKAVPSFDFPKTPSSQNLLALLARQ
With B1, the Activity (cpm) in series [1] was found to be 12200 cpm; in series [2] it was 209000 cpm. The Fold induction in series [2] was 17.1 fold.

B2: NEK9 (protein)
chain: MSVLGEYERHCDSINSDFGSESGGCGDSSPGPSASQGPRAGGGAAEQEELHYIPIRVLGRGAFGEATLYRRTEDDSLVVWKEVDLTRLSEKERRDALNEIVILALLQHDNIIAYYNHFMDNTTLLIELEYCNGGNLYDKILRQKDKLFEEEMVVWYLFQIVSAVSCIHKAGILHRDIKTLNIFLTKANLIKLGDYGLAKKLNSEYSMAETLVGTPYYMSPELCQGVKYNFKSDIWAVGCVIFELLTLKRTFDATNPLNLCVKIVQGIRAMEVDSSQYSLELIQMVHSCLDQDPEQRPTADELLDRPLLRKRRREMEEKVTLLNAPTKRPRSSTVTEAPIAVVTSRTSEVYVWGGGKSTPQKLDVIKSGCSARQVCAGNTHFAVVTVEKELYTWVNMQGGTKLHGQLGHGDKASYRQPKHVEKLQGKAIRQVSCGDDFTVCVTDEGQLYAFGSDYYGCMGVDKVAGPEVLEPMQLNFFLSNPVEQVSCGDNHVVVLTRNKEVYSWGCGEYGRLGLDSEEDYYTPQKVDVPKALIIVAVQCGCDGTFLLTQSGKVLACGLNEFNKLGLNQCMSGIINHEAYHEVPYTTSFTLAKQLSFYKIRTIAPGKTHTAAIDERGRLLTFGCNKCGQLGVGNYKKRLGINLLGGPLGGKQVIRVSCGDEFTIAATDDNHIFAWGNGGNGRLAMTPTERPHGSDICTSWPRPIFGSLHHVPDLSCRGWHTILIVEKVLNSKTIRSNSSGLSIGTVFQSSSPGGGGGGGGGEEEDSQQESETPDPSGGFRGTMEADRGMEGLISPTEAMGNSNGASSSCPGWLRKELENAEFIPMPDSPSPLSAAFSESEKDTLPYEELQGLKVASEAPLEHKPQVEASSPRLNPAVTCAGKGTPLTPPACACSSLQVEVERLQGLVLKCLAEQQKLQQENLQIFTQLQKLNKKLEGGQQVGMHSKGTQTAKEEMEMDPKPDLDSDSWCLLGTDSCRPSL
For B2, the Activity (cpm) was determined as 6980 cpm in series [1] and 26300 cpm in series [2]. Moreover, the Fold induction in series [2] stood at 3.77 fold.

B3: RIPK5 (protein)
chain: FAASLRQLEAGHSGRLEKTEDLWLRVRKDHAPRLARLSLESCSLQDVLLHRKPKLGQELGRGQYGVVYLCDNWGGHFPCALKSVVPPDEKHWNDLALEFHYMRSLPKHERLVDLHGSVIDYNYGGGSSIAVLLIMERLHRDLYTGLKAGLTLETRLQIALDVVEGIRFLHSQGLVHRDIKLKNVLLDKQNRAKITDLGFCKPEAMMSGSIVGTPIHMAPELFTGKYDNSVDVYAFGILFWYICSGSVKLPEAFERCASKDHLWNNVRRGARPERLPVFDEECWQLMEACWDGDPLKRPLLGIVQPMLQGIMNRLCKSNSEQPNRGLDDST
B3: in series [1], the Activity (cpm) turned out to be 1330 cpm. In addition, in series [2], the Activity (cpm) was determined as 16000 cpm and the Fold induction came to 12 fold.

B4: PKCι (protein)
chain: MPTQRDSSTMSHTVAGGGSGDHSHQVRVKAYYRGDIMITHFEPSISFEGLCNEVRDMCSFDNEQLFTMKWIDEEGDPCTVSSQLELEEAFRLYELNKDSELLIHVFPCVPERPGMPCPGEDKSIYRRGARRWRKLYCANGHTFQAKRFNRRAHCAICTDRIWGLGRQGYKCINCKLLVHKKCHKLVTIECGRHSLPQEPVMPMDQSSMHSDHAQTVIPYNPSSHESLDQVGEEKEAMNTRESGKASSSLGLQDFDLLRVIGRGSYAKVLLVRLKKTDRIYAMKVVKKELVNDDEDIDWVQTEKHVFEQASNHPFLVGLHSCFQTESRLFFVIEYVNGGDLMFHMQRQRKLPEEHARFYSAEISLALNYLHERGIIYRDLKLDNVLLDSEGHIKLTDYGMCKEGLRPGDTTSTFCGTPNYIAPEILRGEDYGFSVDWWALGVLMFEMMAGRSPFDIVGSSDNPDQNTEDYLFQVILEKQIRIPRSLSVKAASVLKSFLNKDPKERLGCHPQTGFADIQGHPFFRNVDWDMMEQKQVVPPFKPNISGEFGLDNFDSQFTNEPVQLTPDDDDIVRKIDQSEFEGFEYINPLLMSAEECV
In series [1], B4 yielded an Activity (cpm) of 6810 cpm. Moreover, in series [2], the Activity (cpm) was found to be 12800 cpm and the Fold induction is 1.88 fold.

B5: MEKK1 (protein)
chain: NQKCKEKMEAEEEEALAIAMAMSASQDALPIVPQLQVENGEDIIIIQQDTPETLPGHTKAKQPYREDTEWLKGQQIGLGAFSSCYQAQDVGTGTLMAVKQVTYVRNTSSEQEEVVEALREEIRMMSHLNHPNIIRMLGATCEKSNYNLFIEWMAGGSVAHLLSKYGAFKESVVINYTEQLLRGLSYLHENQIIHRDVKGANLLIDSTGQRLRIADFGAAARLASKGTGAGEFQGQLLGTIAFMAPEVLRGQQYGRSCDVWSVGCAIIEMACAKPPWNAEKHSNHLALIFKIASATTAPSIPSHLSPGLRDVALRCLELQPQDRPPSRELLKHPVFRTTW
B5 gave an Activity (cpm) in series [1] of 11300 cpm. In series [2], this protein displayed an Activity (cpm) of 24900 cpm and a Fold induction of 2.2 fold.

B6: NEK2 (protein)
chain: MPSRAEDYEVLYTIGTGSYGRCQKIRRKSDGKILVWKELDYGSMTEAEKQMLVSEVNLLRELKHPNIVRYYDRIIDRTNTTLYIVMEYCEGGDLASVITKGTKERQYLDEEFVLRVMTQLTLALKECHRRSDGGHTVLHRDLKPANVFLDGKQNVKLGDFGLARILNHDTSFAKTFVGTPYYMSPEQMNRMSYNEKSDIWSLGCLLYELCALMPPFTAFSQKELAGKIREGKFRRIPYRYSDELNEIITRMLNLKDYHRPSVEEILENPLIADLVADEQRRNLERRGRQLGEPEKSQDSSPVLSELKLKEIQLQERERALKAREERLEQKEQELCVRERLAEDKLARAENLLKNYSLLKERKFLSLASNPELLNLPSSVIKKKVHFSGESKENIMRSENSESQLTSKSKCKDLKKRLHAAQLRAQALSDIEKNYQLKSRQILGMR
With B6, the Activity (cpm) in series [1] was 8700 cpm. Moreover, in series [2], the Activity (cpm) came out at 162000 cpm and the Fold induction turned out to be 18.6 fold.

B7: IRAK4 (protein)
chain: MNKPITPSTYVRCLNVGLIRKLSDFIDPQEGWKKLAVAIKKPSGDDRYNQFHIRRFEALLQTGKSPTSELLFDWGTTNCTVGDLVDLLIQNEFFAPASLLLPDAVPKTANTLPSKEAITVQQKQMPFCDKDRTLMTPVQNLEQSYMPPDSSSPENKSLEVSDTRFHSFSFYELKNVTNNFDERPISVGGNKMGEGGFGVVYKGYVNNTTVAVKKLAAMVDITTEELKQQFDQEIKVMAKCQHENLVELLGFSSDGDDLCLVYVYMPNGSLLDRLSCLDGTPPLSWHMRCKIAQGAANGINFLHENHHIHRDIKSANILLDEAFTAKISDFGLARASEKFAQTVMTSRIVGTTAYMAPEALRGEITPKSDIYSFGVVLLEIITGLPAVDEHREPQLLLDIKEEIEDEEKTIEDYIDKKMNDADSTSVEAMYSVASQCLHEKKNKRPDIKKVQQLLQEMTAS
B7 returned an Activity (cpm) in series [1] of 7440 cpm. In series [2], this protein registered an Activity (cpm) of 50400 cpm and a Fold induction of 6.77 fold.

B8: TBK1 (protein kinase of the kinase panel) (protein)
chain: MQSTSNHLWLLSDILGQGATANVFRGRHKKTGDLFAIKVFNNISFLRPVDVQMREFEVLKKLNHKNIVKLFAIEEETTTRHKVLIMEFCPCGSLYTVLEEPSNAYGLPESEFLIVLRDVVGGMNHLRENGIVHRDIKPGNIMRVIGEDGQSVYKLTDFGAARELEDDEQFVSLYGTEEYLHPDMYERAVLRKDHQKKYGATVDLWSIGVTFYHAATGSLPFRPFEGPRRNKEVMYKIITGKPSGAISGVQKAENGPIDWSGDMPVSCSLSRGLQVLLTPVLANILEADQEKCWGFDQFFAETSDILHRMVIHVFSLQQMTAHKIYIHSYNTATIFHELVYKQTKIISSNQELIYEGRRLVLEPGRLAQHFPKTTEENPIFVVSREPLNTIGLIYEKISLPKVHPRYDLDGDASMAKAITGVVCYACRIASTLLLYQELMRKGIRWLIELIKDDYNETVHKKTEVVITLDFCIRNIEKTVKVYEKLMKINLEAAELGEISDIHTKLLRLSSSQGTIETSLQDIDSRLSPGGSLADAWAHQEGTHPKDRNVEKLQVLLNCMTEIYYQFKKDKAERRLAYNEEQIHKFDKQKLYYHATKAMTHFTDECVKKYEAFLNKSEEWIRKMLHLRKQLLSLTNQCFDIEEEVSKYQEYTNELQETLPQKMFTASSGIKHTMTPIYPSSNTLVEMTLGMKKLKEEMEGVVKELAENNHILERFGSLTMDGGLRNVDCL
B8 had an Activity (cpm) in series [1] of 6600 cpm. In series [2], this protein returned an Activity (cpm) of 16700 cpm and a Fold induction of 2.52 fold.

B9: IKKα (protein)
chain: MERPPGLRPGAGGPWEMRERLGTGGFGNVCLYQHRELDLKIAIKSCRLELSTKNRERWCHEIQIMKKLNHANVVKACDVPEELNILIHDVPLLAMEYCSGGDLRKLLNKPENCCGLKESQILSLLSDIGSGIRYLHENKIIHRDLKPENIVLQDVGGKIIHKIIDLGYAKDVDQGSLCTSFVGTLQYLAPELFENKPYTATVDYWSFGTMVFECIAGYRPFLHHLQPFTWHEKIKKKDPKCIFACEEMSGEVRFSSHLPQPNSLCSLVVEPMENWLQLMLNWDPQQRGGPVDLTLKQPRCFVLMDHILNLKIVHILNMTSAKIISFLLPPDESLHSLQSRIERETGINTGSQELLSETGISLDPRKPASQCVLDGVRGCDSYMVYLFDKSKTVYEGPFASRSLSDCVNYIVQDSKIQLPIIQLRKVWAEAVHYVSGLKEDYSRLFQGQRAAMLSLLRYNANLTKMKNTLISASQQLKAKLEFFHKSIQLDLERYSEQMTYGISSEKMLKAWKEMEEKAIHYAEVGVIGYLEDQIMSLHAEIMELQKSPYGRRQGDLMESLEQRAIDLYKQLKHRPSDHSYSDSTEMVKIIVHTVQSQDRVLKELFGHLSKLLGCKQKIIDLLPKVEVALSNIKEADNTVMFMQGKRQKEIWHLLKIACTQSSARSLVGSSLEGAVTPQTSAWLPPTSAEHDHSLSCVVTPQDGETSAQMIEENLNCLGHLSTIIHEANEEQGNSMMNLDWSWLTE
Regarding B9, the Activity (cpm) in series [1] amounted to 2430 cpm. In series [2], this protein displayed an Activity (cpm) of 6890 cpm and a Fold induction of 2.83 fold.
